According to article PMC11077437, “Scrutiny of chimeric antigen receptor activation by the extracellular domain: experience with single domain antibodies targeting multiple myeloma cells highlights the need for case-by-case optimization” (Frontiers in Immunology, 2024):

Key:
Experiment in all cases: flow cytometry on cells; 2D3 cells with a VHH-CAR incubated with biotinylated CS1 antigen, then PE-coupled streptavidin
Details in all cases: one partner purified
[1] = molecular target: T1, VHH-6 CAR on 2D3 reporter T cells (llama | human)
T1 construct: as the VHH of m2; cloned by PstI/BstEII from pHEN6c; hinge region derived from human IgG4; transmembrane and intracellular co-stimulatory domain derived from human CD28; also called 2D3-6; VHH-CAR with VHH-6; source: 2D3 reporter T cells, lentivirally transduced, sorted, on cells
T1 sequence (heavy, as listed by the source): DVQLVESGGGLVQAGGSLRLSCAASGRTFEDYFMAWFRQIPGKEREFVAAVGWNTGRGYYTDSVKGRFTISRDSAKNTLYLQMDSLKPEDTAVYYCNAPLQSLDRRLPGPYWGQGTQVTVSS

[2] = molecular target: T2, VHH-61 CAR on 2D3 reporter T cells (llama | human)
T2 construct: as the VHH of m13; cloned by PstI/BstEII from pHEN6c; hinge region derived from human IgG4; transmembrane and intracellular co-stimulatory domain derived from human CD28; also called 2D3-61; VHH-CAR with VHH-61; source: 2D3 reporter T cells, lentivirally transduced, sorted, on cells

[3] = molecular target: T3, VHH-63 CAR on 2D3 reporter T cells (llama | human)
T3 construct: as the VHH of m14; cloned by PstI/BstEII from pHEN6c; hinge region derived from human IgG4; transmembrane and intracellular co-stimulatory domain derived from human CD28; also called 2D3-63; VHH-CAR with VHH-63; source: 2D3 reporter T cells, lentivirally transduced, sorted, on cells

[4] = molecular target: T4, VHH-71 CAR on 2D3 reporter T cells (llama | human)
T4 construct: as the VHH of m16; cloned by PstI/BstEII from pHEN6c; hinge region derived from human IgG4; transmembrane and intracellular co-stimulatory domain derived from human CD28; also called 2D3-71; VHH-CAR with VHH-71; source: 2D3 reporter T cells, lentivirally transduced, sorted, on cells

[5] = molecular target: T5, VHH-57 CAR on 2D3 reporter T cells (llama | human)
T5 construct: as the VHH of m12; cloned by PstI/BstEII from pHEN6c; hinge region derived from human IgG4; transmembrane and intracellular co-stimulatory domain derived from human CD28; also called 2D3-57; VHH-CAR with VHH-57; source: 2D3 reporter T cells, lentivirally transduced, sorted, on cells

[6] = molecular target: T6, VHH-73 CAR on 2D3 reporter T cells (llama | human)
T6 construct: as the VHH of m17; cloned by PstI/BstEII from pHEN6c; hinge region derived from human IgG4; transmembrane and intracellular co-stimulatory domain derived from human CD28; also called 2D3-73; VHH-CAR with VHH-73; source: 2D3 reporter T cells, lentivirally transduced, sorted, on cells

[7] = molecular target: T7, VHH-17 CAR on 2D3 reporter T cells (llama | human)
T7 construct: as the VHH of m3; cloned by PstI/BstEII from pHEN6c; hinge region derived from human IgG4; transmembrane and intracellular co-stimulatory domain derived from human CD28; also called 2D3-17; VHH-CAR with VHH-17; source: 2D3 reporter T cells, lentivirally transduced, sorted, on cells
T7 sequence (heavy, as listed by the source): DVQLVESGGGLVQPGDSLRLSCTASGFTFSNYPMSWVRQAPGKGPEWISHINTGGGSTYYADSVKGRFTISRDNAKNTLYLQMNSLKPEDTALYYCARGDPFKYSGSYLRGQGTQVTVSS

[8] = molecular target: T8, VHH-29 CAR on 2D3 reporter T cells (llama | human)
T8 construct: as the VHH of m7; cloned by PstI/BstEII from pHEN6c; hinge region derived from human IgG4; transmembrane and intracellular co-stimulatory domain derived from human CD28; also called 2D3-29; VHH-CAR with VHH-29; source: 2D3 reporter T cells, lentivirally transduced, sorted, on cells

[9] = molecular target: T9, VHH-2 CAR on 2D3 reporter T cells (llama | human)
T9 construct: as the VHH of m1; cloned by PstI/BstEII from pHEN6c; hinge region derived from human IgG4; transmembrane and intracellular co-stimulatory domain derived from human CD28; also called 2D3-2; VHH-CAR with VHH-2; source: 2D3 reporter T cells, lentivirally transduced, sorted, on cells
T9 sequence (heavy, as listed by the source): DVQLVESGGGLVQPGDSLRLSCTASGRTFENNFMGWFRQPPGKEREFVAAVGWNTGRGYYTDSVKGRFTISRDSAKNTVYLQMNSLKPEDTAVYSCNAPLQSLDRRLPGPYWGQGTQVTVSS

[10] = molecular target: T10, VHH-53 CAR on 2D3 reporter T cells (llama | human)
T10 construct: as the VHH of m10; cloned by PstI/BstEII from pHEN6c; hinge region derived from human IgG4; transmembrane and intracellular co-stimulatory domain derived from human CD28; also called 2D3-53; VHH-CAR with VHH-53; source: 2D3 reporter T cells, lentivirally transduced, sorted, on cells

binding result [1]: binds | binding result [2]: binds | binding result [3]: binds | binding result [4]: binds | binding result [5]: binds | binding result [6]: binds | binding result [7]: binds | binding result [8]: binds | binding result [9]: binds | binding result [10]: binds
B1: biotinylated recombinant human CS1 (CS1-(his)C-PEG4-biotin) (domain or fragment, UniProt Q9NQ25 23-226, looked up)
chain: SGPVKELVGSVGGAVTFPLKSKVKQVDSIVWTFNTTPLVTIQPEGGTIIVTQNRNRERVDFPDGGYSLKLSKLKKNDSGIYYVGIYSSSLQQPSTQEYVLHVYEHLSKPKVTMGLQSNKNGTCVTNLTCCMEHGEEDVIYTWKALGQAANESHNGSILPISWRWGESDMTFICVARNPVSRNFSSPILARKLCEGAADDPDSSM
modifications: PEG4-biotin
notes: CS1 (SLAMF7, CD319), human, the extracellular portion, biotinylated variant; also called biotinylated CS1 antigen; biotinylated CS1 protein; source: custom-produced by U Protein Express
